Assays:
[1] = target: T1, crude peptide 1 (EG-surugamide B precursor) (not fully specified)
T1 chain: IAIVKIFL

[2] = target: peptide having a polyethylene glycol (PEG) chain therein (EG at the C terminal)
[3] = target: seco-desprenylagaramide C-EG
[4] = target: tyrocidine A precursor having EG as a leaving group

B1: recombinant SurE (protein)
chain: MGSSHHHHHHSSGLVPRGSHMGAEGAERDAVGALFEELVREHRVTGAQLSVYRDGALSEYATGLASVRTGEPVTPRTGFPFGSVTKFLTAELVMQFVCDGDLDLDDPLAGLLPDLGRAAGPPLGTATVRQLLSHTAGVVDSIEYDEMRGPSYRRFAAACARQPALFPPGLAFSYSNTGYCLLGAVIEAASGMDWWTAMDSCLLRPLGIEPAFLHDPRPGQGGAARPVAEGHALRAGGERAEHVDHMASLSLAAAGGLVGSATDLVTAARPHLADRKTFAQHDLLPEDAVLAMRTCVPDAEPFGLADGWGLGLMRHGTGDGAWYGHDGAVGGASCNLRIHPDRSLALALTANSTAGPKLWEALVARLPEAGLDVGHYALPVPDSAPLAPDAGHLGTYANGDLELMVTHDAAGDLFLTRESYSDYRLSLHEDDLFVARSGEPGALPITGRFVREHPAGPVALLQYGGRAMHRL
[1]
  peptide cyclization (LC-MS of the reaction mixture): a substrate (crude peptide 1, EG-SB precursor, m/z 960.5 [+H]) disappeared by the action of SurE to generate a cyclic peptide (surugamide B (SB), m/z 898.5 [+H])
[2]
  peptide cyclization (reverse-phase HPLC / LC-MS): SurE efficiently circularized also a peptide having a PEG chain therein

B2: SurE (G235L) (protein)
chain: MGSSHHHHHHSSGLVPRGSHMGAEGAERDAVGALFEELVREHRVTGAQLSVYRDGALSEYATGLASVRTGEPVTPRTGFPFGSVTKFLTAELVMQFVCDGDLDLDDPLAGLLPDLGRAAGPPLGTATVRQLLSHTAGVVDSIEYDEMRGPSYRRFAAACARQPALFPPGLAFSYSNTGYCLLGAVIEAASGMDWWTAMDSCLLRPLGIEPAFLHDPRPGQGGAARPVAEGHALRAGGERAEHVDHMASLSLAAALGLVGSATDLVTAARPHLADRKTFAQHDLLPEDAVLAMRTCVPDAEPFGLADGWGLGLMRHGTGDGAWYGHDGAVGGASCNLRIHPDRSLALALTANSTAGPKLWEALVARLPEAGLDVGHYALPVPDSAPLAPDAGHLGTYANGDLELMVTHDAAGDLFLTRESYSDYRLSLHEDDLFVARSGEPGALPITGRFVREHPAGPVALLQYGGRAMHRL
[3]
  peptide cyclization (LC-MS of the reaction mixture): the substrate disappeared by an enzymatic reaction to generate a cyclized product (desprenylagaramide C)

B3: recombinant TycC-TE (protein)
chain: MGSSHHHHHHSSGLVPRGSHMGGSHKRFESRYGTAILLNQETARNVFCFTPIGAQSVYYQKLAAEIQGVSLYSFDFIQDDNRMEQYIAAITAIDPSGPYTLMGYSSGGNLAFEVAKELEERGYGVTDIILFDSYWKDKAIERTVAETENDIAQLFAEIGENTEMFNMTQEDFQLYAANEFVKQSFVRKTVSYVMFHNNLVNTGMTTAAIHLIQSELEADEEAPVAAKWNESAWANATQRLLTYSGHGIHSRMLAGDYASQNASILQNILQELFILKGSRSHHHHHH
[4]
  peptide cyclization (LC-MS of the reaction product): In an active TycC-TE containing system, it was confirmed that a cyclic peptide, i.e., tyrocidine A, and a small amount of substrate hydrolysate were generated

B4: recombinant WolJ (protein)
chain: MNHKVHHHHHHMSAEAKGRGTTISLPLDRLAKEHSVVGGQLAVHHQGTTHTWAFGEEEHDSGRPVSVGTAFALGSTTKALTATSVLQLVSDGDLDLDSPVKTWIEERGAAADHPALNATLRQLLSHTAGLPSDHFDEEAPSLRRWLAGFLTSGDERARASWPTPGSFSYSNIGYAVAGRAVEAATGLPWWQAVRDYLLTPLGTGIGLLPGAPQDGRPLTAAPGHTAHTTPDGRTVVHVVQSTTDAGSAPSGGLAGSAADLVRFARLHLEEPGDLDRSAVADPSVLREMAQPVTGAEPFGLADGWGLGLGHFGPAGRHWLGHDGTLDGSTCHLRIEPRQGTVVALTTNTSSGLALWDSVVEELRECGLDIGLHAPQPPLAAPAATFAECTGTYRNGDLAVTVGIEDQHIVLGLPNGQRDSVAPHTGLFFSGRPGNASLFLGRFVKDVATGEIRALQYSGRTLTREALTARN
seco-wollamide B1-EG
  peptide cyclization (LC-MS of the reaction mixture): the substrate disappeared by an enzymatic reaction to generate a cyclized product (wollamide B1)
